The target of test [1] is T1, Cry3Bb toxin (Bacillus thuringiensis, UniProt Q06117 64-652). Nature of the test: cell-based or functional assay.
In test [2] the target is T1, Cry3Bb toxin. Nature of the test: ELISA, biotinylated peptide titrated on plate-coated activated Cry3Bb; one-site saturation binding fit of specific binding.

T1 sequence (Q06117 64-652 limits assumed): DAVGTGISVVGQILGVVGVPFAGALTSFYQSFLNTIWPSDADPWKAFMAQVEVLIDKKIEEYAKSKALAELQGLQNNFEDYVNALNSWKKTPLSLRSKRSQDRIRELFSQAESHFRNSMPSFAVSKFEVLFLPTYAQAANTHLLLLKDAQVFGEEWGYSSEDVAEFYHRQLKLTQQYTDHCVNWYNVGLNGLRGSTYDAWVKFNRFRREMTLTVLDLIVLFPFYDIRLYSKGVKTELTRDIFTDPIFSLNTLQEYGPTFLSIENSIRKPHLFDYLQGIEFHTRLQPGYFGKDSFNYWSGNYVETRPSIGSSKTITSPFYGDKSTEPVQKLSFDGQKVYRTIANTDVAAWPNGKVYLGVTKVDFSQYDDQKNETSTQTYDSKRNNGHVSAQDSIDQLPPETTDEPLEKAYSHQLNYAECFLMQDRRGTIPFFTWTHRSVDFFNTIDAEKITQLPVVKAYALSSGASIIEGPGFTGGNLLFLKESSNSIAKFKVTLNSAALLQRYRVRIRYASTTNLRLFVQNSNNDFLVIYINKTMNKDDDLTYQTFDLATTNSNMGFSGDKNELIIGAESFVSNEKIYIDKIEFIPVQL

B1: AdCad1-CR9 peptide (peptide)
chain: TEMIYKLTVEASIKEQTQINGKPTFARCEFNVGFFDKDNTDPIFKNKHEDTHEMAEEDDTLFYVLIENATYAKEDVPDDLSTFYLLAEGERDIFDVDKFTGKVTLNKPLDYETKKSHSLTIQSSNSDKLKLNASEETKLHLTIIVTDINDHAPVM
modifications: biotinylated with sulfo-NHS-photocleavable biotin (50-fold molar excess) in the binding assay
notes: Expressed in E. coli from pET-30a (Nde I / Xho I), purified from inclusion bodies on a Ni-chelating column; In the bioassays it was used unlabelled, as inclusion bodies; also called biotinylated-AdCad1-CR9; not shown: C-terminal His-tag from the pET-30a vector
For the molecule B1, the “larval mortality with Cry3Bb (10 ug/cm^2) plus peptide at a 1:10 mass ratio, against 10% with toxin alone” value with Cry3Bb toxin [1] was above 25%. The same molecule came in with a Kd in the test with Cry3Bb toxin [2] of 23.2 nM.

B2: AdCad1-MPED peptide (peptide)
chain: DSDSYITVLPLVDAVSTAKLVTIHATDPDDTSEVQYQIESCIGSGDLLQKLCGNNPFEINKISGEISAQIQSANLSKWDGHFNLTVTAADEAGFDDKNHTDEAVVTLYLVTKLHLVAFDFENSLEQVQNKSNEIKTILDEQFAETSDGGTPYVATVQGANAKSDEITTATVYFLNLKQQKPVNKDNIYSYCTNTQYFGSMRSAFLAEGLSLMSFDGTSNETEDMEEILT
modifications: biotinylated with sulfo-NHS-photocleavable biotin (50-fold molar excess) in the binding assay
notes: Expressed in E. coli from pET-30a (Nde I / Xho I), purified from inclusion bodies on a Ni-chelating column; In the bioassays it was used unlabelled, as inclusion bodies; also called biotinylated-AdCad1-MPED; not shown: C-terminal His-tag from the pET-30a vector
For the molecule B2, in the test with Cry3Bb toxin [1], the “larval mortality with Cry3Bb (10 ug/cm^2) plus peptide at a 1:10 mass ratio, against 10% with toxin alone” value is above 25%. Moreover, the Kd in the test with Cry3Bb toxin [2] is 40.6 nM.

Source of the values: patent US10787678 (UNIVERSITY OF GEORGIA RESEARCH FOUNDATION, dated 2020).
